Reference: IntAct's records for PubMed 22089237

B1: Alpha-1A adrenergic receptor (Homo sapiens), P35348 (parent)
chain: MVFLSGNASDSSNCTQPPAPVNISKAILLGVILGGLILFGVLGNILVILSVACHRHLHSVTHYYIVNLAVADLLLTSTVLPFSAIFEVLGYWAFGRVFCNIWAAVDVLCCTASIMGLCIISIDRYIGVSYPLRYPTIVTQRRGLMALLCVWALSLVISIGPLFGWRQPAPEDETICQINEEPGYVLFSALGSFYLPLAIILVMYCRVYVVAKRESRGLKSGLKTDKSDSEQVTLRIHRKNAPAGGSGMASAKTKTHFSVRLLKFSREKKAAKTLGIVVGCFVLCWLPFFLVMPIGSFFPDFKPSETVFKIVFWLGYLNSCINPIIYPCSSQEFKKAFQNVLRIQCLCRKQSSKHALGYTLHPPSQAVEGQHKDMVRIPVGSRETFYRISKTDGVCEWKFFSSMPRGSARITVSKDQSSCTTARVRSKSFLQVCCCVGPSTPSLDKNHQVPTIKVHTISLSENGEEV

Variants of: B1
Settings: with arrb1_rat Arrb1, P29066
Sequence of arrb1_rat Arrb1, P29066 (P29066 whole entry): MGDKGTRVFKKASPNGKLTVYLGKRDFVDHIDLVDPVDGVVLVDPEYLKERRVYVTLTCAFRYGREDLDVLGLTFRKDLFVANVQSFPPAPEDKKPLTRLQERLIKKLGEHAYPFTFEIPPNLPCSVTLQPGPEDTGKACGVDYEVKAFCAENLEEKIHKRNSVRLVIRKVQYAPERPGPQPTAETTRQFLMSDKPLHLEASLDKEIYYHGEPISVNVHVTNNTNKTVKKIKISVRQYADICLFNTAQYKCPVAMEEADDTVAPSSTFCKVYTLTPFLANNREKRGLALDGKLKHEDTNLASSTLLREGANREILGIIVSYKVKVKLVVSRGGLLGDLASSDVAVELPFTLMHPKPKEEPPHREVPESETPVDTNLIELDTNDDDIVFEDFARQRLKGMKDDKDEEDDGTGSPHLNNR

Row | Variant | effect of a mutation on the interaction
1 | MVFLSGNASDSSNCTQPPAPVNISKAILLGVILGGLILFGVLGNILVILSVACHRHLHSVTHYYIVNLAVADLLLTSTVLPFSAIFEVLGYWAFGRVFCNIWAAVDVLCCTASIMGLCIISIDRYIGVSYPLRYPTIVTQRRGLMALLCVWALSLVISIGPLFGWRQPAPEDETICQINEEPGYVLFSALGSFYLPLAIILVMYCRVYVVAKRESRGLKSGLKTDKSDSEQVTLRIHRKNAPAGGSRMASAKTKTHFSVRLLKFSREKKAAKTLGIVVGCFVLCWLPFFLVMPIGSFFPDFKPSETVFKIVFWLGYLNSCINPIIYPCSSQEFKKAFQNVLRIQCLCRKQSSKHALGYTLHPPSQAVEGQHKDMVRIPVGSRETFYRISKTDGVCEWKFFSSMPRGSARITVSKDQSSCTTARVRSKSFLQVCCCVGPSTPSLDKNHQVPTIKVHTISLSENGEEV [G247R] | increasing interaction strength
